The record followed here is PMC8373988, “Structures of a deAMPylation complex rationalise the switch between antagonistic catalytic activities of FICD” (Nature Communications, 2021).

Data set [1] deals with T1, biotinylated-AviTag-haBiP^T229A-V461F (residues 27–635), unmodified (Chinese hamster, UniProt G3I8R9 27-635, T229A | V461F, biotin on the N-terminal Avi-tag).
T1 construct: Chinese hamster BiP residues 27–635; identical to human BiP over this range; A GS linker stands between the Avi-tag and BiP residue 27; also called unmodified BiP; BiP:ATP; source: E. coli, purified; biotinylated in vitro with GST-BirA, made nucleotide-free, MonoQ; not shown: His6-Smt3, N-terminal, cleaved; Avi-tag (biotinylated), N-terminal, kept
T1 sequence (G3I8R9 27-635 T229A/V461F): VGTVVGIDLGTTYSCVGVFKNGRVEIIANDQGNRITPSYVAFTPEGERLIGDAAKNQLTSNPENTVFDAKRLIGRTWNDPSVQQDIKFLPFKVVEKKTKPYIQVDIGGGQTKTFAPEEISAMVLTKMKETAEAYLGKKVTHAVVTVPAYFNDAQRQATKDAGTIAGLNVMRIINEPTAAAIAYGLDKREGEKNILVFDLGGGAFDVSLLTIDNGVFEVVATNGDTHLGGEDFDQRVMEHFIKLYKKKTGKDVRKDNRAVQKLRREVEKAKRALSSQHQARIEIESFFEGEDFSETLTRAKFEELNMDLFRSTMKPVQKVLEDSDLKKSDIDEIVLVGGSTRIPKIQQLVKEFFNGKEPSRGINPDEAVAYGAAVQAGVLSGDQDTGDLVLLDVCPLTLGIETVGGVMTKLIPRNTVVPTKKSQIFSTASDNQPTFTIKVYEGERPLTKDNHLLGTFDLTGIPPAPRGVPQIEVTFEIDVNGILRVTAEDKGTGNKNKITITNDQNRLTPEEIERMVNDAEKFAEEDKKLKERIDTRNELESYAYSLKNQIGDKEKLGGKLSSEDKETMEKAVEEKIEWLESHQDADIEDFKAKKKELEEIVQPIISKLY
Put plainly: BLI; biotinylated BiP immobilised on streptavidin biosensor, activated with 2 mM ATP (BiP:ATP); TPR domain 62.5 nM to 16 µM, 50 s association and 50 s dissociation; HKMTx, 30 °C; one-phase global fit and steady-state one site fit. The settings on record: both partners purified. For orientation: Biolayer interferometry detects binding as a change in optical thickness at a sensor tip.

Data set [2] concerns the target T1, biotinylated-AviTag-haBiP^T229A-V461F …. Nature of the data set: BLI; biotinylated nucleotide-free BiP (BiP:Apo) immobilised on streptavidin biosensor, before ATP activation; 16 µM TPR domain for 50 s; HKMTx, 30 °C. The settings on record: both partners purified.
The target of data set [3] is T2, lid-truncated BiP^T229A-V461F-AMP (residues 27–549) (Chinese hamster, UniProt G3I8R9 27-549, T229A | V461F, AMP covalently attached to Thr518 (Thr518-AMP)).
T2 construct: Chinese hamster BiP residues 27–549 (all but helix A of SBDα removed); identical to human BiP over this range; also called AMPylated BiP; BiP-AMP; source: E. coli, purified (Ni-NTA, Ulp1 cleavage, anion exchange, gel filtration); AMPylated in vitro with GST-TEV-FICD^E234G; not shown: His6-Smt3, N-terminal, cleaved
T2 sequence (G3I8R9 27-549 T229A/V461F): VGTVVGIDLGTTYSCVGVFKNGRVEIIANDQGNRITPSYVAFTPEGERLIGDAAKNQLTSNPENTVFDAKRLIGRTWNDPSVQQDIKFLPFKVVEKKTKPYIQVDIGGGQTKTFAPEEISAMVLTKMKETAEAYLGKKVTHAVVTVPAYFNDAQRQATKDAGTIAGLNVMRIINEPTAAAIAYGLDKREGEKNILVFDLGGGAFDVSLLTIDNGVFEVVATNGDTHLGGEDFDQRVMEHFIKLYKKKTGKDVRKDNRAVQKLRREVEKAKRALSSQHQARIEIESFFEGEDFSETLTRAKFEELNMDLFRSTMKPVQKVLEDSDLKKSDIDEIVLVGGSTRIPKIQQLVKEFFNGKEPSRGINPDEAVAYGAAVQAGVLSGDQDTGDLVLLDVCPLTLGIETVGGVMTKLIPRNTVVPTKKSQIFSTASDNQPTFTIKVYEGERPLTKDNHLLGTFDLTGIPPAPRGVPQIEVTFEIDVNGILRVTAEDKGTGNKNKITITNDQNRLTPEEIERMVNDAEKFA
Put plainly: crystal structure; heterodimer copurified by gel filtration (FICD:BiP-AMP mixed 1.5:1 with 250 µM ATP, 50 mM KCl, 2 mM MgCl2; TNKMT buffer), sitting drop vapour diffusion at 25 °C; two crystal forms (state 1, state 2). The settings on record: both partners purified. For orientation: SEC sorts molecules by how far they enter the pores of the column.

The target in data set [4] is T1, biotinylated-AviTag-haBiP^T229A-V461F …. Nature of the data set: BLI; biotinylated BiP or BiP-AMP immobilised on streptavidin biosensors, activated in 2 mM ATP for 200 s; apo FICD analytes at 50 nM unless otherwise specified; HKM with 0.05% Triton X-100, 30 °C; second dissociation step with 2 mM ATP. The settings on record: both partners purified.
Data set [5] concerns the target T3, AMPylated biotinylated-AviTag-haBiP^T229A-V461F (residues 27–635) (Chinese hamster, UniProt G3I8R9 27-635, T229A | V461F, AMP covalently attached to Thr518 (Thr518-AMP); biotin on the N-terminal Avi-tag).
T3 construct: Chinese hamster BiP residues 27–635; identical to human BiP over this range; A GS linker stands between the Avi-tag and BiP residue 27; also called AMPylated BiP; BiP-AMP; source: E. coli, purified; AMPylated in vitro with GST-TEV-FICD^E234G, biotinylated in vitro with GST-BirA, made nucleotide-free, MonoQ; not shown: His6-Smt3, N-terminal, cleaved; Avi-tag (biotinylated), N-terminal, kept
The description is as above. The settings on record: both partners purified.

Data set [6] concerns the target T4, BiP^T229A-V461F-AMP (residues 27–635), 'full-length' AMPylated BiP (Chinese hamster, UniProt G3I8R9 27-635, T229A | V461F, AMP covalently attached to Thr518 (Thr518-AMP)).
T4 construct: Chinese hamster BiP residues 27–635 (lacks the unstructured acidic N-terminal region and the C-terminal region with KDEL); identical to human BiP over this range; The deAMPylation assays used BiP^T229A-V461F (UK2521) AMPylated in vitro; also called full-length BiP-AMP; hBiP-AMP; source: E. coli, purified (Ni-NTA, Ulp1 cleavage, anion exchange, gel filtration); AMPylated in vitro with …
Nature of the data set: contrast variation small-angle neutron scattering (SANS); complexes of partially deuterated and non-deuterated FICD^H363A and BiP-AMP copurified by gel filtration (1.25:1 BiP-AMP:FICD, 250 µM ATP) in TNKMT(0.2) at various %D2O; 4.3–5.5 mg/ml, 12 °C. The settings on record: both partners purified.

Data set [7] concerns the molecule itself. The data set is described as above.

Positions count from the first letter of the chain named. In names and notes the source's numbering stands.

Broadly, the Kd is the concentration at which binding is half-saturated. A higher Kd goes with lower affinity.

T3 sequence (G3I8R9 27-635 T229A/V461F): as the sequence (G3I8R9 27-635 T229A/V461F) above
T4 sequence (G3I8R9 27-635 T229A/V461F): as above

B1: isolated TPR domain of FICD (domain or fragment)
chain: LEARAALNQALEMKRQGKREKAQKLFMHALKMDPDFVDALTEFGIFSEEDKDIIQADYLYTRALTISPYH
As for B1, the Kd was 1100 nM in data set [1] and more than 160000 nM in data set [2].

B2: FICD^L258D-H363A (residues 104–445), monomeric, catalytically inactive (enzyme, human, UniProt Q9BVA6 104-445, looked up)
chain: LEARAALNQALEMKRQGKREKAQKLFMHALKMDPDFVDALTEFGIFSEEDKDIIQADYLYTRALTISPYHEKALVNRDRTLPLVEEIDQRYFSIIDSKVKKVMSIPKGNSALRRVMEETYYHHIYHTVAIEGNTLTLSEIRHILETRYAVPGKSDEEQNEVIGMHAAMKYINTTLVSRIGSVTISDVLEIHRRVLGYVDPVEAGRFRTTQVLVGHHIPPHPQDVEKQMQEFVQWLNSEEAMNLHPVEFAALAHYKLVYIAPFIDGNGRTSRLLMNLILMQAGYPPITIRKEQRSDYYHVLEAANEGDVRPFIRFIAKCTETTLDTLLFATTEYSVALPEAQP
notes: human FICD, predicted structured regions, residues 104–445; L258D makes FICD monomeric; H363A traps the deAMPylation substrate; also called monomeric FICD^L258D-H363A; UK2093; source: E. coli, purified (Ni-NTA, on-bead Ulp1 cleavage, anion exchange, gel filtration); not shown: His6-Smt3, N-terminal, cleaved
As to B2, the binding result in data set [3], in data set [4] and in data set [5] was “binds” throughout.

B3: dimeric FICD^H363A(TPRred): FICD^D160C-T183C-H363A-C421S, cysteines reduced (enzyme, human, UniProt Q9BVA6 104-445, looked up)
chain: B2 chain with D57C, T80C, D155L, C318S
notes: human FICD residues 104–445; The cysteine-reduced form of m11; also called TPRred (dimeric); source: E. coli, purified; not shown: His6-Smt3, N-terminal, cleaved
Regarding B3, in data set [5], the binding result is “binds”.

B4: dimeric FICD^H363A(TPRox): FICD^D160C-T183C-H363A-C421S, oxidised (enzyme, human, UniProt Q9BVA6 104-445, looked up)
chain: B2 chain with D57C, T80C, D155L, C318S
modifications: intramolecular disulfide bond between Cys160 and Cys183
notes: human FICD residues 104–445; also called TPRox (dimeric); source: E. coli, purified; oxidised with CuSO4 and 1,10-phenanthroline, Capto Q, RESOURCE Q, gel filtration; not shown: His6-Smt3, N-terminal, cleaved
Regarding B4, the binding result in data set [5] is on record as “binds”.

B5: FICD^H363A (residues 104–445), dimeric, catalytically inactive (enzyme, human, UniProt Q9BVA6 104-445, looked up)
chain: B2 chain with D155L
notes: human FICD, predicted structured regions, residues 104–445; also called dimeric FICD; dimeric FICD^H363A; source: E. coli, purified (Ni-NTA, on-bead Ulp1 cleavage, anion exchange, gel filtration); matchout-deuterated form from E. coli BL21 Star (DE3), purified; not shown: His6-Smt3, N-terminal, cleaved
With B5, the binding result in data set [6], in data set [7], in data set [4] and in data set [5] was “binds” each time.

B6: monomeric FICD^L258D-H363A(TPRox): FICD^D160C-T183C-L258D-H363A-C421S, oxidised (enzyme, human, UniProt Q9BVA6 104-445, looked up)
chain: B2 chain with D57C, T80C, C318S
modifications: intramolecular disulfide bond between Cys160 and Cys183
notes: human FICD residues 104–445; PDB entries hold the parent m1; also called TPRox (monomeric); source: E. coli, purified; oxidised with CuSO4 and 1,10-phenanthroline, Capto Q, RESOURCE Q, gel filtration; not shown: His6-Smt3, N-terminal, cleaved
Consider B6, for which the binding result in data set [4] and in data set [5] was “binds” throughout.
